{"source": "IntAct's records for PubMed 11313760", "parents": {"B1": {"name": "Prelamin-A/C (Homo sapiens), P02545-1 (parent)", "chain": "METPSQRRATRSGAQASSTPLSPTRITRLQEKEDLQELNDRLAVYIDRVRSLETENAGLRLRITESEEVVSREVSGIKAAYEAELGDARKTLDSVAKERARLQLELSKVREEFKELKARNTKKEGDLIAAQARLKDLEALLNSKEAALSTALSEKRTLEGELHDLRGQVAKLEAALGEAKKQLQDEMLRRVDAENRLQTMKEELDFQKNIYSEELRETKRRHETRLVEIDNGKQREFESRLADALQELRAQHEDQVEQYKKELEKTYSAKLDNARQSAERNSNLVGAAHEELQQSRIRIDSLSAQLSQLQKQLAAKEAKLRDLEDSLARERDTSRRLLAEKEREMAEMRARMQQQLDEYQELLDIKLALDMEIHAYRKLLEGEEERLRLSPSPTSQRSRGRASSHSSQTQGGGSVTKKRKLESTESRSSFSQHARTSGRVAVEEVDEEGKFVRLRNKSNEDQSMGNWQIKRQNGDDPLLTYRFPPKFTLKAGQVVTIWAAGAGATHSPPTDLVWKAQNTWGCGNSLRTALINSTGEEVAMRKLVRSVTVVEDDEDEDGDDLLHHHHGSHCSSSGDPAEYNLRSRTVLCGTCGQPADKASASGSGAQVGGPISSGSSASSVTVTRSYRSVGGSGGGSFGDNLVTRSYLLGNSSPRTQSPQNCSIM", "partner": "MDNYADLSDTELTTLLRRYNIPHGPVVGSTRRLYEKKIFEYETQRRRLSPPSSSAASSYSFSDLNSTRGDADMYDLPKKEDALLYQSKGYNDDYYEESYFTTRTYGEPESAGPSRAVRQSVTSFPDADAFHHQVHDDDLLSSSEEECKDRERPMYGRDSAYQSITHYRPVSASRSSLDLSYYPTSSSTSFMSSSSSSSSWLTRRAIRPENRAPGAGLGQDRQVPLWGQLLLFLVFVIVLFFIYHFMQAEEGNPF"}}, "data": [{"variants_of": "B1", "details": "with emd_human EMD", "values": [{"variant": "R482Q", "effect of a mutation on the interaction": "with no effect"}]}]}
